Results taken from the supplement of paper PMC12042874.
± gives the uncertainty stated by the source.

Assay: amyloid nucleation score (Sup35N fusion, yeast selection) (log enrichment); library NNK2; higher = more nucleation; inactive = no reads after selection
Method in brief: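 Random libraries were run with three technical output replicates. In each, psi-negative yeast expressing Sup35N fused to peptides of 20 random codons were induced 24 hours with 100 μM copper sulfate and grown 7 days at 30°C on medium lacking adenine and uracil, and input and output plasmid inserts were Illumina-sequenced. The nucleation score is the DiMSum log enrichment of output over input reads, centred on the mode score of non-aggregating sequences, and sequences under 100 input reads were excluded.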

| Substance | amyloid nucleation score |
| --- | --- |
| KVPDKGEKLCSLLAFGYQG | 0.736 ± 0.8 |
| MLLIRGHILIPGADLTIIPE | -0.692 ± 0.56 |
| INSITKSVGGQRGARRY | 2.25 ± 0.21 |
| DMWQGEFKLGPRFSDENSQF | -0.172 ± 1.1 |
| TWSIYAHH | 0.952 ± 0.58 |
| LIVSAALRYNKDLLWIS | -0.004 ± 0.39 |
| HYCYRHIGRLQMWMKSGLHA | 1.04 ± 0.34 |
| YGVVYAYYPDQVQWVGCNE | -0.24 ± 0.64 |
| VTVRSFTNIRSTFKLDSPLL | 0.122 ± 0.29 |
| SASMHWYSSRCDTL | 0.275 ± 0.29 |
| ICMAGEVGKQRGYLDGGMP | 0.505 ± 0.54 |
| LDINIFM | -0.304 ± 1.1 |
| SSYGWVMLMEDFW | -1.23 ± 0.62 |
| SYIICELNQLLGFKNWHKTC | 2.83 ± 0.068 |
| ILPISVLVDHINWSDPYFIM | 0.035 ± 1 |
| EILRSGMSCIWVLYDFIGI | -0.437 ± 1 |
| GMNFHRGLMLNGVCIFSLLW | 0.491 ± 0.38 |
| CNCDMLFCTTVSFRVLDTEN | 8.295 ± 0.037 |
| NFHGSASNCDAIVYANFTMH | 4.61 ± 0.086 |
| QNKSIDSHAVGGIRVDDYRR | -0.088 ± 0.31 |
| SMLEDRYHSALTENRRDWKQ | 0.564 ± 0.28 |
| RIKCRTLLGQFLMAVVIEMY | 0.309 ± 0.31 |
| DRLTG | -0.705 ± 1.1 |
| LVPGYWYMWVTGNVKRVFCD | -1.54 ± 0.62 |
| SGFNNISMKQLWWT | inactive |

| Substance | amyloid nucleation score |
| --- | --- |
| YVPDGAQARLDASIFIVCSR | 5.23 ± 0.055 |
| MMGRTTWMDIKIYWENQCAE | -0.176 ± 1.1 |
| LVKNSIKRGYL | inactive |
| SLCLRRCMKNKSKQMTMVWR | -0.247 ± 0.53 |
| MADTPSNFKYYLPKLFKG | inactive |
| DCNVWSSSERKVLSRGTSDF | -0.193 ± 0.31 |
| RSSSVVEARGESST | 7.106 ± 0.041 |
| HAYYHLILDVLFPDGLWL | -0.938 ± 0.36 |
| GWSSSGVVIRVPGSFRLVGR | 1.39 ± 0.45 |
| YHLGSSLLLCI | inactive |
| SYDLPPFI | 2.57 ± 0.11 |
| VMDLDAGTCWCISISGLTVR | 0.533 ± 0.35 |
| TSPRRACWSIQSDDWFGFEW | 1.33 ± 0.38 |
| TNCSPVVPSCD | 0.224 ± 0.57 |
| TSQQRAYITP | -0.703 ± 1 |
| CNLESMQSHFMVLCTFDG | -0.044 ± 0.63 |
| KLNLMCWDGLYLDMKIDSNL | 3.94 ± 0.07 |
| CGFSWCIDQLGTCLCKMVVV | -0.269 ± 0.28 |
| GDVQLRGMHESPYSPPSQGR | -0.127 ± 0.49 |
| TISLRGDMDSSCKGIEGSSL | -0.316 ± 1.1 |
| YVVEHQLMYAVWLFALGGSN | 0.655 ± 0.24 |
| PGDMLSGAFHMCISNCVTSC | 0.319 ± 0.38 |
| RLYNSQFIKYWNFSSRCCLL | 3.51 ± 0.098 |
| FWYENP | 2.14 ± 0.16 |
| GRCTRERW | 0.123 ± 0.32 |

| Substance | amyloid nucleation score |
| --- | --- |
| YSEVTVRSSAAL | 0.863 ± 0.29 |
| AILGLYVYMGSWHKGVSGVI | inactive |
| VMCSWVGDLWFCESIRAQEV | 8.035 ± 0.047 |
| TFRRTVNGNMRGQMPTNWAF | 0.537 ± 0.22 |
| ASGVFSLAEYNFFGISKKSF | inactive |
| DGTYLQNRRDFNNGSARRGW | 0.984 ± 0.57 |
| TCELYESHVGTFLHVSSNGT | 1.23 ± 0.12 |
| IRYLYAMVLMDVNDGRYYCK | -1.54 ± 1 |
| GRFDSRAFTDDMTKIPMYYL | 0.045 ± 0.36 |
| KATPFAGTLRVYSTVTYCAI | 0.148 ± 1 |
| YGSWSPHEAGVYT | inactive |
| KRVFAKVTVMDHSNSG | inactive |
| GSAGNYRRY | 0.167 ± 0.56 |
| SGKTMEVIYNEGSCFCGFLT | 8.09 ± 0.081 |
| LRGLVMRCAFIVKGLGLCEG | 0.979 ± 0.22 |
| HLYMH | 1.62 ± 0.18 |
| MDIFCYTGRPTSAKRAS | -1.05 ± 0.64 |
| LYSCCLQCSSTNSIYEDLMC | inactive |
| IDRCRNC | inactive |
| ITTAYGGTIEMIRELNVASV | 0.42 ± 0.47 |
| ALILVAMSVFLSAGLRVMIK | inactive |
| LSVRPASNELCAHVVVRFEC | 3.66 ± 0.09 |
| GTRSGSSDV | 0.31 ± 0.5 |
| YFKDLKADVRVKMTKLEWPQ | 2.67 ± 0.12 |
| NLNYLVLTYDVSVWNVYVVL | 8.17 ± 0.046 |

| Substance | amyloid nucleation score |
| --- | --- |
| SFIRMWKDRLYHRLVALNRV | 1 ± 0.48 |
| LEMFYRVPLPRCKTYLQFRC | 0.471 ± 0.62 |
| IIYYMTVCQDSIDRIVPFCN | 2.01 ± 0.14 |
| PVYRACILIDM | 3.18 ± 0.054 |
| KTLRCQRMVGYWGIRVDLGR | 1.31 ± 0.42 |
| LVLRRWMSVRYFMGLTMKVR | inactive |
| CYCEEMSMNTFKTCINTGAM | 1.04 ± 0.42 |
| DWFCVHKV | 0.058 ± 1 |
| KNDFLNM | inactive |
| FNLSGWLMSSIRNNFLVPG | -1.01 ± 0.61 |
| LGTLGYTDAILWNYMSHCKG | inactive |
| SVLTIRLKMQGHWLPGAAGC | 3.66 ± 0.15 |
| VSLYRKGSASKEGGLERATD | 0.55 ± 0.3 |
| SWRTWISRCYFTLDDVSKTA | 0.181 ± 0.43 |
| WRYDSWFKRKHCMLLYICQG | 0.003 ± 0.43 |
| SFDGGRDGRLMYIGRMLEEL | -0.067 ± 0.62 |
| CSSYHLEYKCYKHLLWFQSR | -0.306 ± 0.3 |
| GNRVYGDYCFYTTMGWASW | -0.379 ± 0.55 |
| FFSDVSLVQYHLTLRFLMAY | -1.69 ± 0.62 |
| TGFSLVFSWFFLNG | 3.68 ± 0.099 |
| YSIFHFYLKGFGSTW | inactive |
| NVRTYCGFKSSNIRRWVSRH | inactive |
| AVMAISMRS | 0.514 ± 0.56 |
| YNMCYNG | -0.781 ± 1.1 |
| ANQSVYLAEAVYQAGIEGRD | 0.358 ± 0.24 |

| Substance | amyloid nucleation score |
| --- | --- |
| YYTQRAAFIWKVICKVDVYV | 2.46 ± 0.18 |
| SSLGA | -0.059 ± 0.5 |
| NTVRRVCFAVVEMSASIMDG | 0.738 ± 0.42 |
| WFCVVVMFGRRVDNLDKLVF | -1.33 ± 0.54 |
| FVLNHLAV | -0.548 ± 0.54 |
| DRLAILSNFGVVMIPTLRLY | -0.09 ± 0.4 |
| MHHIFYVGNLSW | inactive |
| SGYMMNFAA | 1.24 ± 0.32 |
| HYISRHQLWILFFVKCVNSR | 5.01 ± 0.1 |
| SMNVRTKLDWSTTRVDSGLR | 0.662 ± 0.21 |
| VQDAFVYFNAELRWYDILGQ | -0.201 ± 0.37 |
| WNGGQWGAWPLCSNVCAMRS | 7.7 ± 0.062 |
| VAVDLRGIDGNIYAFQAKIE | 2.97 ± 0.068 |
| CELRIFTCHDSCAVLDRWME | 1.16 ± 0.18 |
| DVDEVW | -1.09 ± 0.61 |
| CGMNGKTEGEWMGYRKDEGE | 6.03 ± 0.077 |
| SSNFRLSLWYSKMM | -0.246 ± 0.36 |
| TWNISILHCI | 4.84 ± 0.084 |
| IQLIQML | 0.27 ± 0.57 |
| STDAILAGKFCSGH | -0.943 ± 0.55 |
| TFRAMAFVIFAGWLIRYDRR | inactive |
| AIWVYRPLVIQGTFGIRPA | 6.15 ± 0.08 |
| ANSYYIVYLGPHHAYFFILK | 3.75 ± 0.12 |
| IYNMVSCIIDLCYDKTRHSR | 3.85 ± 0.12 |
| MPQSSRFCTNSFGNRHRRSW | -0.343 ± 1.1 |

| Substance | amyloid nucleation score |
| --- | --- |
| FSRWVVVLVVQLWSLALRSN | 0.369 ± 0.65 |
| LSVMLTYYGYMPNLYIVVRE | -0.713 ± 0.49 |
| SCTHLDW | inactive |
| LHVMYQTAMRAFAWNVTDLG | -0.032 ± 0.8 |
| SLKEESFESVMNVG | 3.87 ± 0.059 |
| CMSVGGGLHG | 3.13 ± 0.071 |
| LRDTPLMGWYCFRSHLVTVS | 1.3 ± 0.51 |
| VEFTRVGVRLSHDVPVHDRW | 3.95 ± 0.066 |
| KAWLSSKITKM | 0.131 ± 1 |
| HLEMRPAMRIPLLRTDFWKV | 0.665 ± 0.19 |
| GLISIAVSRRVYLFCLVAPV | -0.541 ± 0.79 |
| TFIVMKIHYRFKVKLICQTC | 0.681 ± 0.46 |
| DEEGRVSPDVARLVAVICGA | 0.413 ± 0.39 |
| YFNMSLTIPNI | 0.566 ± 0.47 |
| FAKIRGLITFVLQMWVTVYV | -0.278 ± 0.45 |
| KGFRMRAWWRVGVLDCDAGT | 0.082 ± 1.1 |
| DILGFCLSCMLRVGLFTWGR | inactive |
| RPLPSFPNNRSERSNTSF | 0.851 ± 0.57 |
| YSFCKCVIVGIWFRLGWCQA | inactive |
| ARKYLRCGSACVKVEYF | 3.51 ± 0.047 |
| CSYWNVGYREVRMTDDDTMG | -0.975 ± 0.53 |
| IIPRMLDMPLSVWQEIIRFW | 0.45 ± 0.5 |
| FMLNYERL | -1.08 ± 0.42 |
| FRCHYFNWNDFALAVSFSKE | -0.33 ± 0.38 |
| QKKLDLQ | -0.673 ± 1 |

| Substance | amyloid nucleation score |
| --- | --- |
| VQEERAFKWVR | 0.44 ± 0.42 |
| LFYKVFAYLFFVDVVCASKG | 4.97 ± 0.062 |
| CQMYHKCALVLLAGHQLRRR | 1.19 ± 0.33 |
| MFGNTGLTSYYALTGTRWLY | -0.487 ± 0.79 |
| VTTKKHPIYTVTRRDRKPGD | 0.524 ± 0.32 |
| HGSQRFDFWGGYRYW | 0.83 ± 0.13 |
| SPCMCGYITINSLRPLLTFS | 5.797 ± 0.03 |
| VIPYVIQSYWMGMN | -1.56 ± 0.75 |
| VINVKEYVGYIVSKVDKGGP | 4.24 ± 0.049 |
| CHHQRYGSGFRLRNSLTVGS | 0.015 ± 0.41 |
| DIERQAVNRPVGRLGKTEDS | 0.242 ± 0.77 |
| SATARKNILVSLGSVALFDR | -0.82 ± 0.54 |
| WRSDLAVGFYKEMHSRRING | -0.992 ± 0.36 |
| SFNVF | -0.094 ± 0.6 |
| RCVYNTKVREMPVLVGLRQD | inactive |
| SDFIMTLSERVVGASLNSCD | inactive |
| QDVSYPSWYPGAFC | -0.675 ± 1.1 |
| YWNQNCELTVFSN | inactive |
| SFSKNALDNRFWGRFSFFFG | 1.3 ± 0.34 |
